According to paper PMC5874916 (2018):

Assays:
[1] = molecular target: T1, 6xHis-tagged WT RTp51/p66 heterodimer purified from E. coli (HIV-1, UniProt P04585 588-1027); experiment: BLI
[2] = molecular target: T1, 6xHis-tagged WT RTp51/p66 heterodimer …; experiment: BLI; remark: listed apart in the source

B1: purified recombinant eEF1A1 (OriGene), biotinylated (natural protein)
chain: MGKEKTHINIVVIGHVDSGKSTTTGHLIYKCGGIDKRTIEKFEKEAAEMGKGSFKYAWVLDKLKAERERGITIDISLWKFETSKYYVTIIDAPGHRDFIKNMITGTSQADCAVLIVAAGVGEFEAGISKNGQTREHALLAYTLGVKQLIVGVNKMDSTEPPYSQKRYEEIVKEVSTYIKKIGYNPDTVAFVPISGWNGDNMLEPSANMPWFKGWKVTRKDGNASGTTLLEALDCILPPTRPTDKPLRLPLQDVYKIGGIGTVPVGRVETGVLKPGMVVTFAPVNVTTEVKSVEMHHEALSEALPGDNVGFNVKNVSVKDVRRGNVAGDSKNDPPMEAAGFTAQVIILNHPGQISAGYAPVLDCHTAHIACKFAELKEKIDRRSGKKLEDGPKFLKSGDAAIVDMVPGKPMCVESFSDYPPLGRFAVRDMRQTVAVGVIKAVDKKAAGAGKVTKSAQKAQKAK
modifications: biotin (EZ-Link-sulfo-NHS-biotin)
With B1 the Kd [1] was 3.48 nM and the koff [2] was 0.000475 s⁻¹.
